The text below walks through data of PMC8240387 (2021).

One assay deals with soluble FcγRIIIa (UniProt P08637 17-208). The assay is described as follows: SPR.
Assay [1] has as its target recombinant, soluble HIV-1 UG37 gp140 (HIV-1 clade A strain 92UG037). The assay is described as follows: SPR.

Sequence of soluble FcγRIIIa (P08637 17-208): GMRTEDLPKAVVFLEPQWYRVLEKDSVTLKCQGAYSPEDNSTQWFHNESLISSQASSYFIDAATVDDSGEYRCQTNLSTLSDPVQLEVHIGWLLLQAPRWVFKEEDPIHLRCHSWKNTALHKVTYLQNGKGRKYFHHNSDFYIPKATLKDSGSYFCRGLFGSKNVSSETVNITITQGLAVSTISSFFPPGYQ

B1: Mammalian cell-expressed N6 (mN6), broadly neutralising anti-HIV monoclonal antibody N6 expressed in HEK-293T cells (antibody)
chain 1: RAHLVQSGTAMKKPGASVRVSCQTSGYTFTAHILFWFRQAPGRGLEWVGWIKPQYGAVNFGGGFRDRVTLTRDVYREIAYMDIRGLKPDDTAVYYCARDRSYGDSSWALDAWGQGTTVVVSA
chain 2: YIHVTQSPSSLSVSIGDRVTINCQTSQGVGSDLHWYQHKPGRAPKLLIHHTSSVEDGVPSRFSGSGFHTSFNLTISDLQADDIATYYCQVLQFFGRGSRLHIK
modifications: N-glycosylated (size shift on PNGaseF digestion) | N-glycosylated (size shift on PNGaseF digestion)
B1: the koff in the assay with soluble FcγRIIIa was found to be 0.17 s⁻¹; in assay [1] it was 0.000189 s⁻¹.

B2: Plant-expressed N6 (pN6), broadly neutralising anti-HIV monoclonal antibody N6 expressed in glycoengineered ΔXF N. benthamiana (antibody)
chain 1: RAHLVQSGTAMKKPGASVRVSCQTSGYTFTAHILFWFRQAPGRGLEWVGWIKPQYGAVNFGGGFRDRVTLTRDVYREIAYMDIRGLKPDDTAVYYCARDRSYGDSSWALDAWGQGTTVVVSA
chain 2: YIHVTQSPSSLSVSIGDRVTINCQTSQGVGSDLHWYQHKPGRAPKLLIHHTSSVEDGVPSRFSGSGFHTSFNLTISDLQADDIATYYCQVLQFFGRGSRLHIK
modifications: N-glycosylated: GnGn 81.67%, fucosylated 0.69%, no xylosylation, 6.48% non-glycosylated | N-glycosylated: mature complex-type glycans, α(1,3)-fucose 20.93%, no xylosylation, no high mannose …
B2: the koff worked out at 0.016 s⁻¹ in the assay with soluble FcγRIIIa and 0.000115 s⁻¹ in assay [1].
